Experimental data from patent US20250340655A1, “EPHA2-TARGETING ANTIBODIES AND THEIR APPLICATIONS IN CANCER TREATMENT” (TAIPEI MEDICAL UNIVERSITY, priority 2022, published 2025).

Target: T1, endogenous EphA2 molecules on three strains of gastric cancer cells (Homo sapiens, UniProt P29317)
T1 construct: identify endogenous EphA2 molecules on three strains of gastric cancer cells; endogenous in cells
Experiment: Flow cytometry binding on gastric cancer cells
Conditions: flow cytometry (FIG. 15A)
Description: Flow cytometry was used to analyze the response of hSD5 IgG in identifying endogenous EphA2 molecules on the three strains of gastric cancer cell lines. PC represents the use of commercial Ab to determine the expression of EphA2 on cancer cells; NC represents the control group with irreverent of the isotype IgG1 antibody. The hSD5 was used to identify endogenous EphA2 molecules on three strains of gastric cancer cells by flow cytometry analysis. […] (FIG. 15A)

T1 sequence (P29317 24-976): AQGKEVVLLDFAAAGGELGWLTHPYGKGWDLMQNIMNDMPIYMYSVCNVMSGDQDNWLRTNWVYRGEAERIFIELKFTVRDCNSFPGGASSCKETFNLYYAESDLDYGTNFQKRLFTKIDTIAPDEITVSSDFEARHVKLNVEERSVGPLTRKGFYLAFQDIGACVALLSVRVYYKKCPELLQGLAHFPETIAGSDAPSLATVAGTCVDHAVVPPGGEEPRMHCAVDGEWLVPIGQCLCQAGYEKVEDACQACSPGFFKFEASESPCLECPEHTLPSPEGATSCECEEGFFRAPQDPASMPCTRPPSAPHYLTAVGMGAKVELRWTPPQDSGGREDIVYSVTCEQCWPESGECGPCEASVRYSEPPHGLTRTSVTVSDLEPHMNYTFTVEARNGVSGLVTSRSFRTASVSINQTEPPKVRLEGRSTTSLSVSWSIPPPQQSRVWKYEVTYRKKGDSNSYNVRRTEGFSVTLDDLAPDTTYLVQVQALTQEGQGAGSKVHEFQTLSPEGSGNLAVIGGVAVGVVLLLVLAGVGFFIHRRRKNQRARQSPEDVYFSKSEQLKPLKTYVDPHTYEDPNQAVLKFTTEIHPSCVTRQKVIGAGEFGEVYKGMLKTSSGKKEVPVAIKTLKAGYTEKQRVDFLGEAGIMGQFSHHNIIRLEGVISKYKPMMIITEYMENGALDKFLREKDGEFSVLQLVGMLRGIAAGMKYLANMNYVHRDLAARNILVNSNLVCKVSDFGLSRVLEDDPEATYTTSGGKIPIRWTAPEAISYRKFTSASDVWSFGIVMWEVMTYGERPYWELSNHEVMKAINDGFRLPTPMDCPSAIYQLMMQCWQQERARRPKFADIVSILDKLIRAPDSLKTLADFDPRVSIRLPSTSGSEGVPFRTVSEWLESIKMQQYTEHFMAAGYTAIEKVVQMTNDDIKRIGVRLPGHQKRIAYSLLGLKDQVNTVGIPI

binding response to EphA2 molecules on gastric cancer cells: significant binding response
B1: IgG hSD5: complete humanized anti-EphA2 IgG (IgG1) of hSD5 (antibody, V domains shown)
VH: QVQLVESGGGLVQPGGSLRLSCAASGFTFSDYGMGWVRQAPGKGLEWVAGISAAGSFTPYGAAVKGRFTISRDNSKNTVYLQMNSLRAEDTAVYYCARIPSGYRAGEIYTWGQGTLVTVSS
VL: LTQPPSVSVSPGQTVRITCSGSSGSYGWYQQKSPGQAPVTLIYDNDKRPSGIPERFSGSSSGSTSTLTISGVQAEDEADYYCGSADSSTYVGMFGGGTKLTVL
